Data on one substance can be found in patent publication US20110318357A1.

The test addresses Shiga toxin type 2 (Stx2) (Escherichia coli) (UniProt P09385). Nature of the test: cell-based or functional assay.

monoclonal antibody 11E10 yielded a percent neutralization of cytotoxicity for Vero cells of 65%.
